# Assay results as given in publication PMC9482650, “Quantitative fragmentomics allow affinity mapping of interactomes” (Nature Communications, 2022).
# Target: T1, TJP3_3, O95049
# T1 sequence (O95049 375-456, limits assumed, looked up): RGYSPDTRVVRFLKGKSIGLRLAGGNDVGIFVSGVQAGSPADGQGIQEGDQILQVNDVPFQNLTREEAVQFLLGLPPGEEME
# Assay: holdup assay
# Design: key: below the threshold = too weak to quantify, mostly under pKd 3.1 to 4
# Details: plain residues with an end cap or a label only (N-terminal biotin on a linker: ado-ado)
row,Binder,pKd
1,"EDGESWEYQI [TRPV6, Q9H1D0]",below the threshold
2,"NIAESLESLV [PTPRZ1, P23471]",below the threshold

# Target: T2, DFNB31_2, Q9P202
# T2 sequence (Q9P202 274-371, limits assumed, looked up): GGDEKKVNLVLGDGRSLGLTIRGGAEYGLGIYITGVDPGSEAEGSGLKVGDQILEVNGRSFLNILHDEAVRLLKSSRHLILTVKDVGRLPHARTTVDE
# Assay: holdup assay
# Design: key: below the threshold = too weak to quantify, mostly under pKd 3.1 to 4
# Details: plain residues with an end cap or a label only (N-terminal biotin on a linker: ado-ado)
row,Binder,pKd
1,"EDGESWEYQI [TRPV6, Q9H1D0]",below the threshold
2,"NIAESLESLV [PTPRZ1, P23471]",below the threshold

# Target: PDZRN4_1, Q6ZMN7
# Sequence (Q6ZMN7 213-318): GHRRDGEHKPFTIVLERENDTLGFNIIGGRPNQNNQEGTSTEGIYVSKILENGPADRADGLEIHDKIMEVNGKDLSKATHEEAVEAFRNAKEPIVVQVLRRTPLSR
# Assay: holdup assay
# Design: key: below the threshold = too weak to quantify, mostly under pKd 3.1 to 4
# Details: plain residues with an end cap or a label only (N-terminal biotin on a linker: ado-ado)
row,Binder,pKd
1,"EDGESWEYQI [TRPV6, Q9H1D0]",below the threshold
2,"NIAESLESLV [PTPRZ1, P23471]",3.99

# Target: DLG1_2, Q12959
# Assay: holdup assay
# Design: key: below the threshold = too weak to quantify, mostly under pKd 3.1 to 4
# Details: plain residues with an end cap or a label only (N-terminal biotin on a linker: ado-ado)
row,Binder,pKd
1,"EDGESWEYQI [TRPV6, Q9H1D0]",below the threshold
2,"NIAESLESLV [PTPRZ1, P23471]",5.31

# Target: T3, LRRC7, Q96NW7
# T3 sequence (Q96NW7 1440-1537, limits assumed, looked up): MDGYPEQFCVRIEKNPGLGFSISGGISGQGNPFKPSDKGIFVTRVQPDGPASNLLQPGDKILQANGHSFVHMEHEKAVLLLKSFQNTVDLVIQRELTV
# Assay: holdup assay
# Design: key: below the threshold = too weak to quantify, mostly under pKd 3.1 to 4
# Details: plain residues with an end cap or a label only (N-terminal biotin on a linker: ado-ado)
row,Binder,pKd
1,"EDGESWEYQI [TRPV6, Q9H1D0]",below the threshold
2,"NIAESLESLV [PTPRZ1, P23471]",3.76

# Target: T4, RHPN1, Q8TCX5
# T4 sequence (Q8TCX5 508-602, limits assumed, looked up): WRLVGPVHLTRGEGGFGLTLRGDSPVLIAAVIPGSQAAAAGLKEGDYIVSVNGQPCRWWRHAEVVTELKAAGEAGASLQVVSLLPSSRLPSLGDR
# Assay: holdup assay
# Design: key: below the threshold = too weak to quantify, mostly under pKd 3.1 to 4
# Details: plain residues with an end cap or a label only (N-terminal biotin on a linker: ado-ado)
row,Binder,pKd
1,"EDGESWEYQI [TRPV6, Q9H1D0]",below the threshold
2,"NIAESLESLV [PTPRZ1, P23471]",4.6

# Target: MAGI2_2, Q86UL8
# Sequence (Q86UL8 410-522): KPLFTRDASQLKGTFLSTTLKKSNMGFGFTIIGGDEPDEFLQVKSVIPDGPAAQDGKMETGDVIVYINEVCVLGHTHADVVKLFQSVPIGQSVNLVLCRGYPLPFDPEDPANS
# Assay: holdup assay
# Design: key: below the threshold = too weak to quantify, mostly under pKd 3.1 to 4
# Details: plain residues with an end cap or a label only (N-terminal biotin on a linker: ado-ado)
row,Binder,pKd
1,"EDGESWEYQI [TRPV6, Q9H1D0]",below the threshold
2,"NIAESLESLV [PTPRZ1, P23471]",4.28

# Target: CASK, O14936
# Sequence (O14936 487-570): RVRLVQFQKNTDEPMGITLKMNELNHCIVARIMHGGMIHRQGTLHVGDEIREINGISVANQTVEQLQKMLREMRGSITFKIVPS
# Assay: holdup assay
# Design: key: below the threshold = too weak to quantify, mostly under pKd 3.1 to 4
# Details: plain residues with an end cap or a label only (N-terminal biotin on a linker: ado-ado)
row,Binder,pKd
1,"EDGESWEYQI [TRPV6, Q9H1D0]",below the threshold
2,"NIAESLESLV [PTPRZ1, P23471]",below the threshold

# Target: MAGI2_4, Q86UL8
# Sequence (Q86UL8 772-865): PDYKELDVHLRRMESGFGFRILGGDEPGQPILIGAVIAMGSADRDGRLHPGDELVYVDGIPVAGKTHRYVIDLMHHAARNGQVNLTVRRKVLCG
# Assay: holdup assay
# Design: key: below the threshold = too weak to quantify, mostly under pKd 3.1 to 4
# Details: plain residues with an end cap or a label only (N-terminal biotin on a linker: ado-ado)
row,Binder,pKd
1,"EDGESWEYQI [TRPV6, Q9H1D0]",below the threshold
2,"NIAESLESLV [PTPRZ1, P23471]",4.45

# Target: GRIP2_7, Q9C0E4
# Sequence (Q9C0E4 934-1023): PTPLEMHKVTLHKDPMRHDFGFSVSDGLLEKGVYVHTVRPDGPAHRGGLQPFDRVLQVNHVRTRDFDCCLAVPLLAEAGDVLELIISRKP
# Assay: holdup assay
# Design: key: below the threshold = too weak to quantify, mostly under pKd 3.1 to 4
# Details: plain residues with an end cap or a label only (N-terminal biotin on a linker: ado-ado)
row,Binder,pKd
1,"EDGESWEYQI [TRPV6, Q9H1D0]",3.61
2,"NIAESLESLV [PTPRZ1, P23471]",below the threshold

# Target: NHERF4_4, Q86UT5
# Sequence (Q86UT5 464-550): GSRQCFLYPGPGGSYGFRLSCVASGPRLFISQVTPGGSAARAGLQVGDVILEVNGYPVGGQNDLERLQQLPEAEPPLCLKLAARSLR
# Assay: holdup assay
# Design: key: below the threshold = too weak to quantify, mostly under pKd 3.1 to 4
# Details: plain residues with an end cap or a label only (N-terminal biotin on a linker: ado-ado)
row,Binder,pKd
1,"EDGESWEYQI [TRPV6, Q9H1D0]",3.94
2,"NIAESLESLV [PTPRZ1, P23471]",below the threshold

# Target: LNX1_3, Q8TBB1
# Sequence (Q8TBB1 500-596): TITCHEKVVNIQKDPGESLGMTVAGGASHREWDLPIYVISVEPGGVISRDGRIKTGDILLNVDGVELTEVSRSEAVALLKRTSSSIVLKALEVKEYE
# Assay: holdup assay
# Design: key: below the threshold = too weak to quantify, mostly under pKd 3.1 to 4
# Details: plain residues with an end cap or a label only (N-terminal biotin on a linker: ado-ado)
row,Binder,pKd
1,"EDGESWEYQI [TRPV6, Q9H1D0]",3.52
2,"NIAESLESLV [PTPRZ1, P23471]",below the threshold

# Target: T5, MPDZ_12, O75970
# T5 sequence (O75970 1857-1958, limits assumed, looked up): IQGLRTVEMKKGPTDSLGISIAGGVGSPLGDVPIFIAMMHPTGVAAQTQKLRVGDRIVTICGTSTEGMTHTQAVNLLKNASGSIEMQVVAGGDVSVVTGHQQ
# Assay: holdup assay
# Design: key: below the threshold = too weak to quantify, mostly under pKd 3.1 to 4
# Details: plain residues with an end cap or a label only (N-terminal biotin on a linker: ado-ado)
row,Binder,pKd
1,"EDGESWEYQI [TRPV6, Q9H1D0]",below the threshold
2,"NIAESLESLV [PTPRZ1, P23471]",below the threshold

# Target: Inadl_5, Q8NI35
# Sequence (Q8NI35 673-780): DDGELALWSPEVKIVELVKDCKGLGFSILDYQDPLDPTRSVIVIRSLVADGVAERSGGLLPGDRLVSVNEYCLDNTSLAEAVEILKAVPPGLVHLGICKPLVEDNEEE
# Assay: holdup assay
# Design: key: below the threshold = too weak to quantify, mostly under pKd 3.1 to 4
# Details: plain residues with an end cap or a label only (N-terminal biotin on a linker: ado-ado)
row,Binder,pKd
1,"EDGESWEYQI [TRPV6, Q9H1D0]",below the threshold
2,"NIAESLESLV [PTPRZ1, P23471]",below the threshold

# Target: T6, SNTA1, Q13424
# T6 sequence (Q13424 82-180, limits assumed, looked up): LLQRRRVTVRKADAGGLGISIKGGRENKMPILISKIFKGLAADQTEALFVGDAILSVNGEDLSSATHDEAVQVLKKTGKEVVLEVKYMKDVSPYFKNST
# Assay: holdup assay
# Design: key: below the threshold = too weak to quantify, mostly under pKd 3.1 to 4
# Details: plain residues with an end cap or a label only (N-terminal biotin on a linker: ado-ado)
row,Binder,pKd
1,"EDGESWEYQI [TRPV6, Q9H1D0]",below the threshold
2,"NIAESLESLV [PTPRZ1, P23471]",4.51

# Target: DLG1_1, Q12959
# Assay: holdup assay
# Design: key: below the threshold = too weak to quantify, mostly under pKd 3.1 to 4
# Details: plain residues with an end cap or a label only (N-terminal biotin on a linker: ado-ado)
row,Binder,pKd
1,"EDGESWEYQI [TRPV6, Q9H1D0]",below the threshold
2,"NIAESLESLV [PTPRZ1, P23471]",4.57

# Target: T7, GRIP1_7, Q9Y3R0
# T7 sequence (Q9Y3R0 999-1096, limits assumed, looked up): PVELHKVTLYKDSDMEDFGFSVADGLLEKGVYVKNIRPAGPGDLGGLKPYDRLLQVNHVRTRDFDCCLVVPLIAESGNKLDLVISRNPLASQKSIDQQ
# Assay: holdup assay
# Design: key: below the threshold = too weak to quantify, mostly under pKd 3.1 to 4
# Details: plain residues with an end cap or a label only (N-terminal biotin on a linker: ado-ado)
row,Binder,pKd
1,"EDGESWEYQI [TRPV6, Q9H1D0]",below the threshold
2,"NIAESLESLV [PTPRZ1, P23471]",below the threshold

# Target: T8, NHERF3_1, Q5T2W1
# T8 sequence (Q5T2W1 4-100, limits assumed, looked up): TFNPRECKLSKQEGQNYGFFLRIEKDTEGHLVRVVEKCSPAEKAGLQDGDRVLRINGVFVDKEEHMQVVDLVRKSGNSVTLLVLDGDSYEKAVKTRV
# Assay: holdup assay
# Design: key: below the threshold = too weak to quantify, mostly under pKd 3.1 to 4
# Details: plain residues with an end cap or a label only (N-terminal biotin on a linker: ado-ado)
row,Binder,pKd
1,"EDGESWEYQI [TRPV6, Q9H1D0]",below the threshold
2,"NIAESLESLV [PTPRZ1, P23471]",4.59

# Target: DLG1_3, Q12959
# Assay: holdup assay
# Design: key: below the threshold = too weak to quantify, mostly under pKd 3.1 to 4
# Details: plain residues with an end cap or a label only (N-terminal biotin on a linker: ado-ado)
row,Binder,pKd
1,"EDGESWEYQI [TRPV6, Q9H1D0]",below the threshold
2,"NIAESLESLV [PTPRZ1, P23471]",below the threshold

# Target: MAGI1_2, Q96QZ7
# Sequence (Q96QZ7 456-580): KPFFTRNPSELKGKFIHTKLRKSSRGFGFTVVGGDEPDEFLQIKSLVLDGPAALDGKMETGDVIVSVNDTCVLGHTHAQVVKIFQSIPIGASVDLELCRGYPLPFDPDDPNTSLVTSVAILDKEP
# Assay: holdup assay
# Design: key: below the threshold = too weak to quantify, mostly under pKd 3.1 to 4
# Details: plain residues with an end cap or a label only (N-terminal biotin on a linker: ado-ado)
row,Binder,pKd
1,"EDGESWEYQI [TRPV6, Q9H1D0]",below the threshold
2,"NIAESLESLV [PTPRZ1, P23471]",3.81

# Target: T9, MPDZ_10, O75970
# T9 sequence (O75970 1624-1722, limits assumed, looked up): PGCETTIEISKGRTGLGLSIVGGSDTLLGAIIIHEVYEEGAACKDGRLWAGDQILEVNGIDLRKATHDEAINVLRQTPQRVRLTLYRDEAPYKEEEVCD
# Assay: holdup assay
# Design: key: below the threshold = too weak to quantify, mostly under pKd 3.1 to 4
# Details: plain residues with an end cap or a label only (N-terminal biotin on a linker: ado-ado)
row,Binder,pKd
1,"EDGESWEYQI [TRPV6, Q9H1D0]",below the threshold
2,"NIAESLESLV [PTPRZ1, P23471]",below the threshold

# Target: T10, APBA3_1, O96018
# T10 sequence (O96018 389-490, limits assumed, looked up): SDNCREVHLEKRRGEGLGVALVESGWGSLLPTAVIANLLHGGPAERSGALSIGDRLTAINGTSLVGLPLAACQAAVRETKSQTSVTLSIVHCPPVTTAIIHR
# Assay: holdup assay
# Design: key: below the threshold = too weak to quantify, mostly under pKd 3.1 to 4
# Details: plain residues with an end cap or a label only (N-terminal biotin on a linker: ado-ado)
row,Binder,pKd
1,"EDGESWEYQI [TRPV6, Q9H1D0]",below the threshold
2,"NIAESLESLV [PTPRZ1, P23471]",below the threshold

# Target: T11, SYNJ2BP, P57105
# T11 sequence (P57105 8-110, limits assumed, looked up): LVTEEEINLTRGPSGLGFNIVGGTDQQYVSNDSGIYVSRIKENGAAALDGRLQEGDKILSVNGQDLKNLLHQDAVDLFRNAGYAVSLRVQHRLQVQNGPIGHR
# Assay: holdup assay
# Design: key: below the threshold = too weak to quantify, mostly under pKd 3.1 to 4
# Details: plain residues with an end cap or a label only (N-terminal biotin on a linker: ado-ado)
row,Binder,pKd
1,"EDGESWEYQI [TRPV6, Q9H1D0]",below the threshold
2,"NIAESLESLV [PTPRZ1, P23471]",4.83

# Target: T12, PTPN13_1, Q12923
# T12 sequence (Q12923 1088-1188, limits assumed, looked up): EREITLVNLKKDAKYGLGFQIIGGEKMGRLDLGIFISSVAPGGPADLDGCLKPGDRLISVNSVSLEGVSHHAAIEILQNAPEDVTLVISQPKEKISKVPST
# Assay: holdup assay
# Design: key: below the threshold = too weak to quantify, mostly under pKd 3.1 to 4
# Details: plain residues with an end cap or a label only (N-terminal biotin on a linker: ado-ado)
row,Binder,pKd
1,"EDGESWEYQI [TRPV6, Q9H1D0]",below the threshold
2,"NIAESLESLV [PTPRZ1, P23471]",below the threshold

# Target: T13, APBA2_1, Q99767
# T13 sequence (Q99767 563-664, limits assumed, looked up): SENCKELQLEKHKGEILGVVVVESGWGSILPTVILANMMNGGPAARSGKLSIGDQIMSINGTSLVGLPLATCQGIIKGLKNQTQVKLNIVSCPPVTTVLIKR
# Assay: holdup assay
# Design: key: below the threshold = too weak to quantify, mostly under pKd 3.1 to 4
# Details: plain residues with an end cap or a label only (N-terminal biotin on a linker: ado-ado)
row,Binder,pKd
1,"EDGESWEYQI [TRPV6, Q9H1D0]",below the threshold
2,"NIAESLESLV [PTPRZ1, P23471]",below the threshold
